Here are results for 2 proteins from PMC6969876, “NADPH biosensor-based identification of an alcohol dehydrogenase variant with improved catalytic properties caused by a single charge reversal at the protein surface” (AMB Express, 2020).

Substrate in series [1]: CC(=O)CCC(C)=O
Put plainly: purified protein. It is filed as biochemical, Levilactobacillus brevis. Particulars: 0.3 mM NADPH, 1 mM MgCl2, 50 mM TEA pH 7.0, 30 °C.

Substrate in series [2]: COC(=O)CC(C)=O
The experiment in a line: purified protein. Particulars: 0.3 mM NADPH, 1 mM MgCl2, 50 mM TEA pH 7.0, 30 °C. The class given is biochemical, Levilactobacillus brevis.

B1: LbADH (Levilactobacillus brevis) (protein)
chain: SNRLDGKVAIITGGTLGIGLAIATKFVEEGAKVMITGRHSDVGEKAAKSVGTPDQIQFFQHDSSDEDGWTKLFDATEKAFGPVSTLVNNAGIAVNKSVEETTTAEWRKLLAVNLDGVFFGTRLGIQRMKNKGLGASIINMSSIEGFVGDPSLGAYNASKGAVRIMSKSAALDCALKDYDVRVNTVHPGYIKTPLVDDLPGAEEAMSQRTKTPMGHIGEPNDIAYICVYLASNESKFATGSEFVVDGGYTAQ
Take B1: in the series “purified protein [1]”, the Km was 5100 ± 600 µM and the Vmax stood at 148 µmol/min/mg. Besides, in the series “purified protein [2]”, the Km turned out to be 1130 ± 60 µM and the Vmax came out at 154 µmol/min/mg.

B2: LbADH (Levilactobacillus brevis; K72E) (protein)
chain: SNRLDGKVAIITGGTLGIGLAIATKFVEEGAKVMITGRHSDVGEKAAKSVGTPDQIQFFQHDSSDEDGWTELFDATEKAFGPVSTLVNNAGIAVNKSVEETTTAEWRKLLAVNLDGVFFGTRLGIQRMKNKGLGASIINMSSIEGFVGDPSLGAYNASKGAVRIMSKSAALDCALKDYDVRVNTVHPGYIKTPLVDDLPGAEEAMSQRTKTPMGHIGEPNDIAYICVYLASNESKFATGSEFVVDGGYTAQ
On to B2, for which, in the series “purified protein [1]”, the Km is 4300 ± 500 µM and the Vmax stood at 173 µmol/min/mg. Also, in the series “purified protein [2]”, the Km was determined as 670 ± 40 µM and the maximum rate (Vmax) was 221 µmol/min/mg.
